In the nanobody polyreactivity screen of Harvey et al. (2022):

Test: yeast display, Sf9 membrane polyspecificity reagent, FACS + sequencing; frameworks hold sequencing errors
Procedure, shortened: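 In a synthetic yeast display library (Saccharomyces cerevisiae BJ5465), nanobody expression was induced with galactose for 36–48 hours. FACS gates were set low and high (top ~1%) using anti-HA fluorescence for expression and streptavidin fluorescence for binding of the Sf9 membrane reagent. Each polyreactivity label is drawn from the gate of origin.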

Sequence	polyreactivity (PSR sort gate)
QVQLVESGGGLVQAGGSLRLSCAASGSTFLVYAMGWYRQAPGKERELVAAITRRSTSTFYADSVKGRFTISRVNAKNTVYLQMNSLKPEDTAVYYWAADTRFISRENYWGQGTQVTVSS	high polyreactivity
QVQLVESGGGLVQAGGSLRLSCAASGSTFLVYAMGWYRQAPGKERELVAVIDNGGDTYYADSVKGRFTISRDNAKNTVYLQMNSLKPEDTEVYYCAADLSYLGYWEYDYWGQGTQVTVSS	low polyreactivity
QVQLVESGGGLVQAGGSLRLSCAASGSTFLVYAMGWYRQAPGKERELVAVIDNGGDTYYADSVKGRFTISRDNAKNTVYLQMNSLKPEDTEVYYCAADMSYLGYWEYDSWGQGTQVTVSS	low polyreactivity
QVQLVESGGGLVQAGGSLRLSCAASGSTFLWNAMGWYRPAPGKERELVAAISYSGGSTYYADSVKGRFTISRDNAKNTVYLQMNSLKPEVTAVYYCAKEWFYDPYPPGYDYWGQGTQVTVSS	low polyreactivity
QVQLVESGGGLVQAGGSLRLSCAASGSTFLYNAMGWYRQAPGKERELVAAISTTGARTNYADSVKGRFTISRDNAKNTVYLQMNSLKPEDTAVYYCKDRRGHYWGQGTQVTVSS	high polyreactivity
QVQLVESGGGLVQAGGSLRLSCAASGSTFLYNAMGWYRQAPGKERELVAAISWSGGSTYYADSVKGRFTISRDNAKNTVYLQMNSLKPEDTAVYYCNALSVPDYDYWGQGTQVTVSS	high polyreactivity
QVQLVESGGGLVQAGGSLRLSCAASGSTFLYNAMGWYRQAPGKERELVAAITIGGGSTYYADSVKGRFTISRDNAKNTVYLQMNSLKPEDTAVYYCNKGSYYWWDPGSTYIDDNWGQGTQVTVSS	low polyreactivity
QVQLVESGGGLVQAGGSLRLSCAASGSTFLYNTMGWSRQAPGKERELVATITSRGDRTYYADSVKGRFPISRENAKNTVYLQMNSLKPEDTADYYCAALLYIRSVGYDYWGQGPQVTVSS	low polyreactivity
QVQLVESGGGLVQAGGSLRLSCAASGSTFLYNTMGWYRQAPGKESELVATITSRGDRTYYADSVKGRFTISRDNAKNTVYLQMNSLKPEDTAVYYCNAYGGNYPQSYRYYYWGQGTQVTVSS	low polyreactivity
QVQLVESGGGLVQAGGSLRLSCAASGSTFLYYAMGWYRQAPGKERELVARITTRVGRTYYADSVKGRFTISRDNAKNTVYLQMNSLKPEDTAVYYCATGGSKEMDYWGQGTQVTVSS	high polyreactivity
QVQLVESGGGLVQAGGSLRLSCAASGSTFLYYAMGWYRQAPGKERELVASITGSGSNTYYADSVKGRFTISRDNAKNTVYLQMNSLKREDTAVYYCATDPQSDIPSWLWYWGEYDYWGHGTQVTVSS	low polyreactivity
QVQLVESGGGLVQAGGSLRLSCAASGSTFLYYAMGWYRQAPGKERELVAVITGAGGTNYADSVKGRFTISRDNAKKTVYLQMNSLKPEDTAVYYCAARSPGTRWGDYDYWGQGTQVTVSS	low polyreactivity
QVQLVESGGGLVQAGGSLRLSCAASGSTFLYYTMGWYRQAPGKERELVAAITSGGDSNYADSVKGRFTISRDNAKNTVYLQMNSLKPEDTAVYYCNAEYTWSGTKIYTYKYDYWGQGTQVTVSS	low polyreactivity
QVQLVESGGGLVQAGGSLRLSCAASGSTFNFNAMGWYRQAPGKERELVAAISFSGGSTYYADSVKGRFTISRDNAKNTVYLQMNSLKPEDTAVYYCRPYSRGYGYWGQGTQVTVSS	high polyreactivity
QVQLVESGGGLVQAGGSLRLSCAASGSTFNGNDMGWYRQAPGKERELVATISDGGRTYYADSVKGRFTISRDNAKNTVYLQRNSLKPEDTAVYYCAAPVYVPRAWFYYWGQGTQVTVSS	low polyreactivity
QVQLVESGGGLVQAGGSLRLSCAASGSTFNGNVMGWYRQAPGKERDFVAGISKSGGTTYYADSVKGRFTISRDNAKNTVYLQMNSLKPEDTAVYYCAARGRVRYYPQYYYWGQGTQVTVSS	high polyreactivity
QVQLVESGGGLVQAGGSLRLSCAASGSTFNGYAMGWYRQAPGKERELVADISRGDRTNYADSVKGRFTISRDNAKNTVYLQMKSLKREDTAVYYCAKDWLTDDPDKDPSVEYDYWGQGTQVTVSS	low polyreactivity
QVQLVESGGGLVQAGGSLRLSCAASGSTFNGYTMGCYRQAPGKEREFVATITFSDGSTYYADSVKGRFTISRDNAKNTVYLQMNSLKPEDTAVYYCNVDSPIGYDYWGQGTQVTVSS	low polyreactivity
QVQLVESGGGLVQAGGSLRLSCAASGSTFNHYTMGWYIQAPGKERELVAAISSRGGGTYYADSVKGRFTISRDNAKNTVYLQMNSLKPEDTAVYYCAALISSGIRHSRDYWGQGTQVTVSS	high polyreactivity
QVQLVESGGGLVQAGGSLRLSCAASGSTFNINAMGWYRQAPGKERELVAAISSRGGSTYYADSVKGRFTISRDNAKNTVYLQMNSLKPEDTAVYYCAASPRRVENAGRVRLYYWGQGTQVTVSS	high polyreactivity
QVQLVESGGGLVQAGGSLRLSCAASGSTFNIYAMGWYRQAPGKERELVAAISGNGDRTYYADSVKGRFTISRDNAKNTVYLQMNSLKPEDTAVYYCAAKYYGWGQGTQVTVSS	high polyreactivity
QVQLVESGGGLVQAGGSLRLSCAASGSTFNIYVMGWYRQAPGKERELVAAISTSGRTYYADSVKGRFTISRDNAKNTVYLQMNSLKPEDTAVYYCNAGYWVRKYYHGGYWGQGTQVTVSS	high polyreactivity

Sequence	polyreactivity (PSR sort gate)
QVQLVESGGGLVQAGGSLRLSCAASGSTFNKNAMGWYRQAPGNERELVAVISRSGGSTHYADSVKGRFTISRDNAKNTVYLQMNSLKPEDTAVYYCATPFSYRRRTSASPYLYDYWGQGTQVTVSS	high polyreactivity
QVQLVESGGGLVQAGGSLRLSCAASGSTFNKYAMVWYRQAPGKERELVAAITGSGGRTYYADSVKGRFTISRDTAKNTVYLQMNSLKPEHTAVYYCNAGITHGYDYWGQGTQVSVSS	high polyreactivity
QVQLVESGGGLVQAGGSLRLSCAASGSTFNLYAIGWYRQAPGKEREFVAAIRGRGGNTYADSVKRRFTISRDNAKNTVYLQMNSLKPEDTAVYYCAAPLLRDLRSPYSYKYWGQGTQVTVSS	low polyreactivity
QVQLVESGGGLVQAGGSLRLSCAASGSTFNPYAMGWYRQAPGKERELVAAINSRGGSTYYADSVKGRFTISRDNAKNTVYLQMNSLKPEDSAVYYCAARTRRRTSAYEYWGQGTQVTVSS	high polyreactivity
QVQLVESGGGLVQAGGSLRLSCAASGSTFNQYDMGWYRQAPGKERELVAAITWSGTSTYYADSVKGRFTISRDNAKNTVYLQMNSLTPEDTAVYYCAADDPFHSSCWTYRYGYWGQGTQVTVSS	low polyreactivity
QVQLVESGGGLVQAGGSLRLSCAASGSTFNRNAMGWYRQAPGKERDLVAAISWRGDTTSYADSVKGRSTISRDNAKNTFYLQMNSLNPEDTAVYYCATAHDYAFYRYWYVPSEYNYWGQGTQVTVSS	low polyreactivity
QVQLVESGGGLVQAGGSLRLSCAASGSTFNRYAMGWYRQAPGKARELVATNNSGTSTNYADSVKGRFTISRDNAKNTVYLQKNSLKPEDTAVYYCAKTFRRSVGGYGYEYWGQGTQVTVSS	low polyreactivity
QVQLVESGGGLVQAGGSLRLSCAASGSTFNSNVMGWYRQAPGKERELVAAISRSGGNTYYADSVKGRFTISRDNAKNTVYLQMNSLKPEDTAVYYCNKAGRYPYDYWGQGTQVTVSS	high polyreactivity
QVQLVESGGGLVQAGGSLRLSCAASGSTFNSYAMGWYRQAPGKERELVAAISRSGGRTYYADSVKGRFTISRDNAKNNVYLQMSSMKPEDTAVYYCAAVHNANRGYPFEYWGQGTQVTVSS	high polyreactivity
QVQLVESGGGLVQAGGSLRLSCAASGSTFNVNAMGWYRQSPGKERELVAAITSSGGSTNYADSVKGRFTFSRDNAKYTVYLQMNSLNPEDTAFYYCAAYAIYFSRLNLGYDYWGQGTQVTVSS	low polyreactivity
QVQLVESGGGLVQAGGSLRLSCAASGSTFNVYAMGWYRQAPGKERELVARISWSGGNTYYADSVKGRFTISRDNAKNTVYLQMNSLKPEDTAVYYCATKGYTGYAYRYGYWGQGTQVTVSS	high polyreactivity
QVQLVESGGGLVQAGGSLRLSCAASGSTFNYNAMGWYRQAPGKERELVAAITYSGSSTYYADSVKGRFTISRDNAKNTVYLQMNSLKPEDTAVYYCAAPPYNRPGYGYDYWGQGTQVTVSS	high polyreactivity
QVQLVESGGGLVQAGGSLRLSCAASGSTFPANAMGWYRQAPGKERELVAAISSVGSTNYADSVRGRFTLSRDNAKNTVYLQMNSLKPEDTAVYYCATQPTWYTVGDLDYWGQGTQVTVSS	low polyreactivity
QVQLVESGGGLVQAGGSLRLSCAASGSTFPDNAMGWYRQAPGKERELVAAISFSSGSTYYADSVKGRFTISRDNAKNTVYLQMNSLKPEDTAVYYCAADSYPAYLGFVGFDYWGQGTQVTVSS	low polyreactivity
QVQLVESGGGLVQAGGSLRLSCAASGSTFPDNAMGWYRQAPGKERELVAAISFSSGSTYYADSVKGRFTISRDNAKNTVYLQMNSLKPEDTAVYYCAVANPSPYEWIAYYYWGQGTQVTVSS	low polyreactivity
QVQLVESGGGLVQAGGSLRLSCAASGSTFPFYAMGWYRQAPGKEREFVAVISSSGGSTYYADSVKGRFTISRDNAKNTVYLQMNSLKPEDTAVYYCARSYPGRWYDYWGQGTQVTVSS	high polyreactivity
QVQLVESGGGLVQAGGSLRLSCAASGSTFPGNTMGSYRQAPGKERELVAAITWNGGSTYYADSVKGRFTISRDNAKNNVYLQMNRLKPEDTAVYYCATRARVTYYYWGLGTQVTVSS	high polyreactivity
QVQLVESGGGLVQAGGSLRLSCAASGSTFPHNAMGWYRQAPGKERELVAAISVGGGSSHYADSVKGRFTISRDNAKNNVYLQMNSLKPEDTAVYYCAKDYAYQYSFVTYDYWGQGTQVTVSS	low polyreactivity
QVQLVESGGGLVQAGGSLRLSCAASGSTFPHYAMGWYRQAPGKERELVAAISVRGGRTYYADSVKGRFTISRDNAKNTVYLQMNSLKPEDTAVYYCNKYYYFTKYGYWGQGTQVTVSS	high polyreactivity
QVQLVESGGGLVQAGGSLRLSCAASGSTFPHYAMGWYRQAPGKERELVAAISWSGSSTYYADSVKGRFTISRDNAKNTVYLQMNSLKPEDTAVYYCNKLPRRAPQFTYDYWGQGTLVTVSS	high polyreactivity
QVQLVESGGGLVQAGGSLRLSCAASGSTFPHYAMGWYRQAPGKERELVAAISWSGSSTYYADSVKGRFTISRDNAKNTVYLQMNSLKPEDTAVYYCNKLPRRAPQFTYDYWGQGTQVTVSS	high polyreactivity
